The target in experiment [1] is TMC-2206. In words: ELISA, GST fusion protein on immobilized TMC-2206.
For experiment [2], the target named is TMC-2206. In words: ELISA, GST fusion protein on immobilized TMC-2206 (Kd apparent).
In experiment [3] the target is TMC-2206. In words: fusion protein competing Eu-TMC-2206 off α2β1-coated plate.
Experiment [4] addresses Humanized TMC-2206 (hIgG4/κ VH12.0/VL10.0Q). In words: fusion protein competing Eu-humanized TMC-2206 off α2β1-coated plates.
For experiment [5], the target named is TMC-2206. In words: ELISA, GST fusion protein on immobilized TMC-2206, Kd estimated from EC50.
The target of experiment [6] is human α2β1 integrin on human cells (platelets, leukocytes, HT1080) (human) (UniProt P17301). In words: cell-based or functional assay.
Experiment [7] addresses human platelet α2β1 integrin (immobilized on microtiter plates) (human) (UniProt P17301). In words: competition with Eu-TMC-2206 on platelet α2β1-coated plates.

Data on 14 substances can be found in US20070128190A1.

Regarding “GST-hα2 I domain Y93H (from UniProt P17301 153-368)”, the fold decrease in apparent affinity with TMC-2206 [1] was found to be 23 fold. Besides, the Kd in the experiment with TMC-2206 [2] came out at 6.1 nM.

Consider “GST-hα2 I domain N67E (from UniProt P17301 153-368)”, for which the Ki with TMC-2206 [3] was 0.4 nM. Moreover, the Kd with TMC-2206 [2] was determined as 0.28 nM.

Turning to “GST-hα2 I domain E44V (from UniProt P17301 153-368)”, the Ki with TMC-2206 [3] was 0.35 nM. The Kd with TMC-2206 [2] was 0.23 nM.

Regarding “GST-hα2 I domain V70I (from UniProt P17301 153-368)”, in the experiment with TMC-2206 [3], the inhibition constant (Ki) amounted to 0.86 nM. In the experiment with TMC-2206 [2], the Kd turned out to be 0.44 nM.

In turn, “GST-hα2 I domain Y77F (from UniProt P17301 153-368)” had a Ki with TMC-2206 [3] of 0.39 nM. Besides, the Kd with TMC-2206 [2] worked out at 0.22 nM.

As to “GST-rat α2 I domain fusion protein (from UniProt Q62469 150-377)”, the fold shift in Kd compared to human α2 with TMC-2206 [1] was found to be 3 fold. For the same substance, the Ki with TMC-2206 [3] is 3.8 nM; in experiment [4], 5.23 nM. Besides, the fold decrease in Ki compared to the human α2 I domain in experiment [4] amounted to 9 fold. Further, in the experiment with TMC-2206 [5], the Kd was 0.54 nM.

In turn, “GST-hα2 I domain Q48T (from UniProt P17301 153-368)” had an inhibitory constant (Ki) with TMC-2206 [3] of 0.73 nM. In addition, the Kd with TMC-2206 [2] was determined as 0.19 nM.

“GST-hα2 I domain T76D (from UniProt P17301 153-368)” displayed a Ki in the experiment with TMC-2206 [3] of 0.15 nM. Moreover, the Kd in the experiment with TMC-2206 [2] was 0.17 nM.

“GST-hα2 I domain V71I (from UniProt P17301 153-368)” came in with a Ki in the experiment with TMC-2206 [3] of 0.83 nM. Further, the Kd with TMC-2206 [2] was 0.19 nM.

The substance “GST-hα2 I domain I21V (from UniProt P17301 153-368)” yielded a Ki in the experiment with TMC-2206 [3] of 0.24 nM. The Kd with TMC-2206 [2] was 0.28 nM.

As for “GST-hα2 I domain Q105E (from UniProt P17301 153-368)”, the Ki with TMC-2206 [3] was 0.38 nM. Also, in the experiment with TMC-2206 [2], the Kd was found to be 0.15 nM.

In the experiment with TMC-2206 [3], “GST-mα2 I domain H93Y (from UniProt Q62469 150-377)” displayed an inhibition constant Ki of 20.2 nM and a fold decrease in potency relative to the wt human α2 I domain of 200 fold.

10G11 (antibody) returned an EC50, adhesion of resting platelets to Type I collagen in experiment [6] greater than 200 nM.

In experiment [7], AK7 (antibody) had a Ki of 0.07 nM.
